Results reported in US20040248232.

Key:
[1] = system: APP substrate Ser-Glu-Val-Lys-Met-Asp-Ala-Glu-Phe
[2] = system: Z★Val-Lys-Met-MCA substrate

Chain of Peak I β-secretase endoprotease activity from bovine chromaffin vesicles, identified as bovine cathepsin L (27 kDa cysteine protease band) (chain, as listed by the source): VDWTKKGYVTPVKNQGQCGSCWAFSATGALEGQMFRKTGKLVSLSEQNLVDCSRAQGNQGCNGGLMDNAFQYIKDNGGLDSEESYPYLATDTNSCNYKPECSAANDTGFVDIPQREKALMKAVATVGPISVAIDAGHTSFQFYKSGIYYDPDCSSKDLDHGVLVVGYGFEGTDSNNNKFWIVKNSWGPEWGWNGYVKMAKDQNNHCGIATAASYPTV

## Peak I β-secretase endoprotease activity from bovine chromaffin vesicles, identified as bovine cathepsin L (27 kDa cysteine protease band)
[1]
  cleavage of the APP substrate, products analyzed by EMS: the majority of Peak I activity cleaved the Lys-Met bond
[2]
  cleavage of the Z★Val-Lys-Met-MCA substrate, products analyzed by EMS: the Peak I activity cleaved the Lys-Met bond in the Z★Val-Lys-Met-MCA substrate

## Peak II-A β-secretase endoprotease activity from bovine chromaffin vesicles, identified as bovine cathepsin B (31 kDa cysteine protease band)
[1]
  cleavage of the APP substrate, products analyzed by EMS: the majority of the Peaks II-A and II-B activities cleaved the Met-Asp bond
[2]
  fluorescent MCA released by cleavage of the substrate: the majority of the endoprotease activity in Peak II-A and Peak II-B cleaved the β-secretase scissile bond

## Peak II-B β-secretase endoprotease activity from bovine chromaffin vesicles, identified as bovine cathepsin B (31 kDa cysteine protease band)
[1]
  cleavage of the APP substrate, products analyzed by EMS: the majority of the Peaks II-A and II-B activities cleaved the Met-Asp bond
[2]
  fluorescent MCA released by cleavage of the substrate: the majority of the endoprotease activity in Peak II-A and Peak II-B cleaved the β-secretase scissile bond
